Reference: PMC9138216

Biological target: Bacillus pumilus bilirubin oxidase (Bacillus pumilus)
Test: crystal structure; X-ray, 3.5 Å; crystals grown at 20 °C in 0.1 M sodium citrate pH 5.5, 20% PEG 3000; dimer interface analysed with PDBePISA

stoichiometry N: 2
Substance: Bacillus pumilus bilirubin oxidase (enzyme)
